The results in this text go back to patent US8173771B2, “Humanin receptor or humanin-like polypeptide receptor” (Keio Univeristy, priority 2005, dated 2012).

For this experiment, the target named is T1, G-CSFR/gp130 chimera proteins (Homo sapiens, UniProt P40189+Q99062).
T1 construct: the extracellular domain of the human G-CSF receptor fused to the full transmembrane domain; expressed in transfected cells; host or cells: F11 cells
T1 sequence (Q99062+P40189 with tags, fused parts or gaps): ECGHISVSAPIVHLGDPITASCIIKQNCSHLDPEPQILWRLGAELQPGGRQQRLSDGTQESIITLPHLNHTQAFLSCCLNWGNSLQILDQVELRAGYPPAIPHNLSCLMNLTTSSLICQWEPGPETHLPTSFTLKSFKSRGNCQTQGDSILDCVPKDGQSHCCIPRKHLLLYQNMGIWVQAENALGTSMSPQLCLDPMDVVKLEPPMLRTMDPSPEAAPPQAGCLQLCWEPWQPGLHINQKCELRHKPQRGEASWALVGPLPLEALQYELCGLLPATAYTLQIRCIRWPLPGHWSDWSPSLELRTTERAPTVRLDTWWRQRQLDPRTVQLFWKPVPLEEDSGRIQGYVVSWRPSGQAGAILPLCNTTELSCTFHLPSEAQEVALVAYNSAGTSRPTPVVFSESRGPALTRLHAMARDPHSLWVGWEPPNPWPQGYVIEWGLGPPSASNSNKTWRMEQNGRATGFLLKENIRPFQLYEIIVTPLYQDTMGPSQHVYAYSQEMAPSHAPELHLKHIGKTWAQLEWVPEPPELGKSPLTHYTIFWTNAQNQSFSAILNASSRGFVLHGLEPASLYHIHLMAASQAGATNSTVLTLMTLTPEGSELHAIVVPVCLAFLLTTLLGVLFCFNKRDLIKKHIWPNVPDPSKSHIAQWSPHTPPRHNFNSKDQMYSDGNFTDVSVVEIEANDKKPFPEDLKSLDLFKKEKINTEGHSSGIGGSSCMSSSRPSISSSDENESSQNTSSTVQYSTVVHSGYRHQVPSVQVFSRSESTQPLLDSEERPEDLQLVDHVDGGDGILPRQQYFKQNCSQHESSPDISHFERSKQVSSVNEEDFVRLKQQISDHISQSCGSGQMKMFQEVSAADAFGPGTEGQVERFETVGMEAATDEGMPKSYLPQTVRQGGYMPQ
The experiment in a line: G-CSF stimulation of G-CSFR/gp130 chimera proteins in F11 cells, cell mortality by Trypan blue exclusion. Type of experiment: cell-based. The note with it: 100 nM; G-277 expressed. As for the experimental part:
B) F11 cells were transfected with 0.5 μg of the pcDNA3 vector or pcDNA3-APP in association with 0.5 μg of the pEFBos vector or the pEFBos vectors encoding the extracellular domain of the human G-CSF receptor fused to the full transmembrane domain and a C-terminally truncated intracytoplasmic domain of gp130 (named “G-CSFR/gp130”). G-CSFR/gp130 (277) contains the full intracytoplasmic domain of gp130 corresponding to amino acids 1-277, while G-CSFR/gp130 (25), (68), and (133) contain the intracytoplasmic domains corresponding to amino acids 1-25, 1-68, and 1-133, respectively. At 24 hr after transfection, the cells were added with indicated amounts of human G-CSF. Cell mortality was determined by Trypan blue exclusion assay at 72 hr after transfection. The results of immunoblot analysis of the expression of […] are shown in photos.
C) Instead of the pcDNA3-V6421-APP vector, pcDNA3-K595 N/M596L-APP (NL-APP), M146L-PS1 and N141-I-PS2 vectors were used to do the same experiments as in FIG. 2A. The results of immunoblot analysis of the expression of NL-APP, M146L-PS1 and N141-I-PS2 are shown in photos.
D) F11 cells were transfected with 0.5 μg of the pEFBos vector or pEF-G85R-SOD1 in association with 0.5 μg of the pEFBos vector or each pEFBos vector encoding G-CSFR/gp130 (277) or G-CSFR/gp130 (25). At 24 hr after transfection, the cells were added with indicated amounts of human G-CSF. Cell mortality was determined by Trypan blue exclusion assay at 72 hr after transfection. The results of the expression of G85R-SOD1, which were confirmed by the immunoblot analysis, are shown in photos.
Neurohybrid F11 cells and pcDNA3 vectors encoding V642I-APP, K595N/M596L-APP (NL-APP), M146L-PS1, and N141I-PS2 cDNA were prepared as already described (Hashimoto et al, 2000, 2001a, 2003). pCAG-human gp130 and pCAG-human gp130 ED (the extracellular domain of human gp130) were prepared as described (Kumanogoh et al., 1997). pcDNA3 vectors encoding the extracellular domain of the G-CSF receptor fused to the full-length transmembrane domain and various portions of the intracellular domains of human gp130, were prepared as described (Fukada et al, 1996). The intracellular domain of gp130 was C-terminally truncated. A chimera protein named G-277 contained a 277 amino acid-long full intracellular domain of gp130 (SEQ ID NO:35), while G-195, G-133, G-68, and G-25 contained the amino acids 1-195 (SEQ ID NO:36), 1-133 (SEQ ID NO:37), 1-68 (SEQ ID NO:38), and 1-25 (SEQ ID NO:39) intracellular portions, respectively. C-terminally myc-tagged human WSX-1 and myc-tagged mouse CREME9 cDNAs were amplified from human and mouse embryo cDNA (BioChain) by PCR using sets of sense primers and antisense primers: 5′-[…]-3′ (SEQ ID NO:3) and 5′-[…]-3′ (SEQ ID NO:4) for human WSX-1; 5′-[…]-3′ (SEQ ID NO:5); and 5′-[…]-3′ (SEQ ID NO:6) for mouse CREME9. Plasmids encoding C-terminally V5-tagged human CNTF-R (V %-CNTF-R) and rat IL-6R (pUCM18-rat IL-6R) were purchased from Invitrogen and American Culture Collection, respectively. A pEFBos vector comprising familial ALS (FALS) gene G85R-SOD1 was kindly provided by Dr. Shoji Tsuji. Cosmid of human wild […] was constructed by inserting a full-length gp130 into a SwaI site of pAxCAwt (TaKaRa).
The transfection procedures were as described (Hashimoto et al, 2000, 2001a, 2003). F11 cells, seeded at 7×10^4/well in 6-well dishes, were transfected with indicated vectors. Transfection efficiency in these protocols has been determined to be invariably around 70%. At 72 hrs after transfection, the Trypan blue exclusion assay and LDH assay were performed as a cell-death assay and the WST-8 assay was performed as cell-viability assays (Hashimoto et al, 2000, 2001a b, 2003). HN was added to the culture medium usually at 5 hrs after transfection, but in some cases at 24 hrs after transfection.

B1: G-CSF: human G-CSF, ligand stimulating G-CSFR/gp130 chimera proteins (protein, UniProt P09919 31-207, looked up)
Granulocyte …: TPLGPASSLPQSFLLKCLEQVRKIQGDGAALQEKLVSECATYKLCHPEELVLLGHSLGIPWAPLSSCPSQALQLAGCLSQLHSGLFLYQGLLQALEGISPELGPTLDTLQLDVADFATTIWQQMEELGMAPALQPTQGAMPAFASAFQRRAGGVLVASHLQSFLEVSYRVLRHLAQP
As for B1, the “prevention of NL-APP-, M146L-PS1-, N141I-PS2-mediated neuronal cell death” value was “prevented” and the “prevention of neuronal cell death induced by V642I-APP” value is “prevented”.
